The values below come from patent US20170298096A1 (CANIMGUIDE THERAPEUTICS, published 2017).

T1: His-tagged P3028 (human, also: His-tag, terminus and sequence not given here)
T1 construct: in solution at 0.5 ug/mL over the peptide cards; found with anti-His-tag antibody and rabbit anti-mouse peroxidase (rampo); also called PGE73; not shown: His-tag
T1 peptide: VFDEFKPLVEEPQNLIK

No end group written: not given here.
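Further: score is the raw OD at 405 nm from peroxidase colour with ABTS, imaged by CCD camera before and after staining, with wells showing air bubbles set to zero.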

In the assay the target is T1, His-tagged P3028. Briefly: PEPSCAN chip ELISA, His-P3028 in solution. (In general: ELISA stands for enzyme-linked immunosorbent assay.)
Method: After washing, the peroxidase substrate 2,2′-azine-di-3-ethylbenzthiazoline sulfonate (ABTS) and 2 μL of 3% H2O2 were added. The binding capacity of the mAb was measured as a color development at 405 nm (optical density, OD405). The color development was quantified with a charge-coupled device (CCD)—camera and an image processing system.
The OD405-values obtained by a CCD-camera was considered as raw data values (“rampo values,” “rampo units,” or “rampo scores”). […] First the CCD-camera made a picture of the card before peroxidase coloring and then again a picture after the peroxidase coloring. […] These values were copied into an excel file and labeled as a raw data file. One follow-up manipulation was allowed. Sometimes a well can contain an air-bubble resulting in a false-positive value. If manual inspection of the cards detect an air-bubble the value are set to 0 for that well.
On to KKLDTFFVKLSLATER [SEQ ID NO 361], for which the “RAMPO Score” value was 525 rampo score.

As for KKLDHFFVKLSLFTER [SEQ ID NO 420], the “RAMPO Score” value came to 391 rampo score. Under KKLDTFFVKLSLFFER [SEQ ID NO 376] stands 348 rampo score; under KKLDTFFIKLSLFTER [SEQ ID NO 416], 401 rampo score.

Turning to KKLDTFFVKLSLFPER [SEQ ID NO 383], the “RAMPO Score” value was 551 rampo score. For KKLDTFCVKLSLFTER [SEQ ID NO 409], the “RAMPO Score” value worked out at 411 rampo score. On to KKLDTFFVKLSLWTER [SEQ ID NO 375], for which the “RAMPO Score” value was 430 rampo score. The result for KKLDTFFVKLSLFMER [SEQ ID NO 381] reads 501 rampo score; that for KKLDTQFVKLSLFTER [SEQ ID NO 410], 410 rampo score; that for KKLDTFFVKLSLGTER [SEQ ID NO 363], 531 rampo score.

Regarding KKLDTFFVKLSLFVER [SEQ ID NO 385], the “RAMPO Score” value is 380 rampo score. With KKLDTFFVKLSFFTER [SEQ ID NO 422], the “RAMPO Score” value is 389 rampo score. Under KKLDTFFVKLSLFTDR [SEQ ID NO 387] stands 404 rampo score; under KFLDTFFVKLSLFTER [SEQ ID NO 421], 390 rampo score. Under KKLPTFFVKLSLFTER [SEQ ID NO 435] stands 364 rampo score.

In the case of KKLDTFFVKLSLTTER [SEQ ID NO 373], the “RAMPO Score” value was found to be 494 rampo score.

KKLDVFFVKLSLFTER [SEQ ID NO 429]: the “RAMPO Score” value was found to be 374 rampo score. Under KKLMTFFVKLSLFTER [SEQ ID NO 423] stands 384 rampo score.

As to KKLDTFFVKLSLFTEK [SEQ ID NO 389], the “RAMPO Score” value worked out at 291 rampo score.

For KKLDTFEVKLSLFTER [SEQ ID NO 424], the “RAMPO Score” value amounted to 381 rampo score. The result for KKLDTFFVKLSLFNER [SEQ ID NO 382] reads 599 rampo score. The result for KKLDTYFVKLSLFTER [SEQ ID NO 434] reads 364 rampo score; that for KKLDTFFVKLSLFWER [SEQ ID NO 386], 374 rampo score; that for KKLDTFAVKLSLFTER [SEQ ID NO 404], 426 rampo score. Under KKLDTFFVKLSKFTER [SEQ ID NO 438] stands 355 rampo score; under KKLDTFFVKLSLITER [SEQ ID NO 365], 468 rampo score; under KKLTTFFVKLSLFTER [SEQ ID NO 413], 405 rampo score.

With KKLDTFFVKLSLFGER [SEQ ID NO 377], the “RAMPO Score” value stood at 343 rampo score.

In the case of KKLDTFFVKLSLFTET [SEQ ID NO 392], the “RAMPO Score” value was 292 rampo score.

KGLDTFFVKLSLFTER [SEQ ID NO 412]: the “RAMPO Score” value came out at 405 rampo score. Under KKLDTFFVKLSLNTER [SEQ ID NO 368] stands 862 rampo score; under KKLDTFFVKLSLHTER [SEQ ID NO 364], 1050 rampo score; under KKLDTFFVKLSLVTER [SEQ ID NO 374], 446 rampo score. Under KKLDTFFVKLSLFTEY [SEQ ID NO 393] stands 311 rampo score.

With KKLDTFFVKLSLFLER [SEQ ID NO 380], the “RAMPO Score” value is 360 rampo score. The result for KHLDTFFVKLSLFTER [SEQ ID NO 418] reads 394 rampo score; that for KKLDTLFVKLSLFTER [SEQ ID NO 411], 408 rampo score; that for KKLDTFFVKLSGFTER [SEQ ID NO 431], 370 rampo score. The result for KKLDTFFVKLSLPTER [SEQ ID NO 369] reads 696 rampo score; that for KKLDTFWVKLSLFTER [SEQ ID NO 425], 380 rampo score; that for KRLDTFFVKLSLFTER [SEQ ID NO 407], 417 rampo score. KKLDTFFVKLSLQTER [SEQ ID NO 370]: the “RAMPO Score” value was found to be 1140 rampo score.

Consider KKLDTFFVKLSLLTER [SEQ ID NO 366], for which the “RAMPO Score” value is 448 rampo score. In the case of KKLDTFPVKLSLFTER [SEQ ID NO 437], the “RAMPO Score” value was determined as 356 rampo score. Under KKLDTFFVKLVLFTER [SEQ ID NO 419] stands 392 rampo score; under KKLDTFFVKLSLFHER [SEQ ID NO 378], 463 rampo score; under KKLDTFFVKLSLFTEF [SEQ ID NO 388], 297 rampo score.

With KMLDTFFVKLSLFTER [SEQ ID NO 417], the “RAMPO Score” value was 400 rampo score. The result for KKLDTFFVKLYLFTER [SEQ ID NO 415] reads 402 rampo score; that for KKLDTFRVKLSLFTER [SEQ ID NO 432], 369 rampo score. As for KKLDTSFVKLSLFTER [SEQ ID NO 401], the “RAMPO Score” value came out at 432 rampo score. Under KKPDTFFVKLSLFTER [SEQ ID NO 436] stands 361 rampo score. The result for KKLFTFFVKLSLFTER [SEQ ID NO 426] reads 380 rampo score. Turning to KKLDTFFVKLSLCTER [SEQ ID NO 362], the “RAMPO Score” value is 400 rampo score. The result for KKLDTFFVKLSLRTER [SEQ ID NO 371] reads 502 rampo score; that for KNLDTFFVKLSLFTER [SEQ ID NO 402], 432 rampo score; that for KKLDTFFVKLSLFTEN [SEQ ID NO 390], 311 rampo score. In the case of KPLDTFFVKLSLFTER [SEQ ID NO 405], the “RAMPO Score” value came to 425 rampo score.

With KKLDTFHVKLSLFTER [SEQ ID NO 433], the “RAMPO Score” value was found to be 364 rampo score. For the molecule KKLDTFFVKLSLSTER [SEQ ID NO 372], the “RAMPO Score” value was determined as 635 rampo score. KKLDTFFVKLSLFSER [SEQ ID NO 384]: the “RAMPO Score” value amounted to 369 rampo score. The result for KKLDTFIVKLSLFTER [SEQ ID NO 397] reads 446 rampo score; that for KKLDTFFVKLSLFIER [SEQ ID NO 379], 375 rampo score; that for KKLDTFFVKLSLMTER [SEQ ID NO 367], 1190 rampo score. Under KKLDTFFVKLSLFTPR [SEQ ID NO 439] stands 351 rampo score.
